The record followed here is US20250018040A1 (UNITED STATES OF AMERICA AS REPRESENTED BY THE SECRETARY …, published 2025).

Assay [1] deals with T1, full length Fc-mesothelin (UniProt Q13421 296-598, limits assumed).
T1 construct: it is written here as in the name; also called Fc-MSLN; full length mesothelin attached to an Fc protein; not shown: Fc protein
Nature of the assay: flow cytometry: Fc-mesothelin bound to 293T cells transfected with the CAR vector, detected with fluorescent anti-Fc antibody (column: Expressed by 293T cells?). As to the method:
293T cells were independently transduced with the CAR-T vectors. Expression of each Fv by the 293T cells was tested. The CAR-T vectors were transfected into 293T cells. After two days of culture, Fc-mesothelin was bound to the cells. The bound Fc protein was detected by a secondary anti-Fc-antibody conjugated to a fluorescent dye using flow cytometry.
A general note: A flow cytometer gives signals particle by particle.

Assay [2] concerns the target T1, full length Fc-mesothelin. Put plainly: Western blot. On the procedure:
(§1) A Western blot assay was carried out to test the ability of mAb 15B6 or control mAb MN to bind to full length Fc-mesothelin and shed mesothelin, which had been shed by OVCAR-8 cells. Equal amounts of OVCAR-8 cell growth media were collected. The proteins were resolved by SDS gel electrophoresis. The bands were detected by Western blot using the antibodies MN and/or 15B6. Full length mesothelin attached to an Fc protein was used as positive control and reacts with both antibodies.
(Immunoblotting shows a protein as a band on a membrane.)

The target in a further assay is T2, shed mesothelin (UniProt Q13421 296-585, limits assumed).
T2 construct: also called Shed MSLN; mesothelin shed by OVCAR-8 cells
Nature of the assay: Western blot of OVCAR-8 growth medium. On the procedure: as §1

T1 sequence (Q13421 other isoform, or with tags, fused parts or gaps limits assumed): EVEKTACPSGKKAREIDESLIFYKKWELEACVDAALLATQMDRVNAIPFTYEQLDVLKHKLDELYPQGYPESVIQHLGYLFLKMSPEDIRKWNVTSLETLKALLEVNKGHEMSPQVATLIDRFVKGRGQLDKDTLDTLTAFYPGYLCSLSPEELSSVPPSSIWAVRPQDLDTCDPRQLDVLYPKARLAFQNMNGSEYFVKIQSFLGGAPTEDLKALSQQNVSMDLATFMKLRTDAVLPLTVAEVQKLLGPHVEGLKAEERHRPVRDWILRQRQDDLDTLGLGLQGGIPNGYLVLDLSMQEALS
T2 sequence (Q13421 other isoform, or with tags, fused parts or gaps limits assumed): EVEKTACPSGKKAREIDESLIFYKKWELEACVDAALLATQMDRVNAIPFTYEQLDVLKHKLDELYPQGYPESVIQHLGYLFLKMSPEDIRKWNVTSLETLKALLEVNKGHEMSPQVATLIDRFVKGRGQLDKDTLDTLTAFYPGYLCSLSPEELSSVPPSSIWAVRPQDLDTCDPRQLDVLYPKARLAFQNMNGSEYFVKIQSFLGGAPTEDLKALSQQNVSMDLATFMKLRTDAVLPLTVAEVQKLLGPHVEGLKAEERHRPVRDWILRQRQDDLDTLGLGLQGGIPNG

B1: CAR Construct No. 2, 15B6 scFv (Vh-lin-Vl) (other)
chain: MEVQLQQSGPVLVKPGASVKISCKASGYSFTGYYMHWVRQSLVKRLEWIGRINPYTGVPSYKHNFKDKASLTVDKSSSTAYMELHSLTSEDSAVYYCARELGGYWGQGTTLTVSSGGGGSGGGGSGGGGSQAVVTQESALTTSPGETVTLTCRSSTGAVTTGNYPNWVQEKPDHLFTGLIAGTNNRAPGVPARFSGSLIGDKAALTITGAQTEDEAIYFCALWFSSHWVFGGGTKLTVLTSTTTPAPRPPTPAPTIASQPLSLRPEACRPAAGGAVHTRGLDFACDIYIWAPLAGTCGVLLLSLVITKRGRKKLLYIFKQPFMRPVQTTQEEDGCSCRFPEEEEGGCELRVKFSRSADAPAYQQGQNQLYNELNLGRREEYDVLDKRRGRDPEMGGKPRRKNPQEGLYNELQKDKMAEAYSEIGMKGERRRGKGHDGLYQGLSTATKDTYDALHMQALPPR
notes: Chimeric antigen receptor on 293T cells or T cells
Regarding B1, in assay [1], the binding result is “binds”.

B2: mAb 15B6 (antibody, mouse IgG2b, V domains shown)
VH: EVQLQQSGPVLVKPGASVKISCKASGYSFTGYYMHWVRQSLVKRLEWIGRINPYTGVPSYKHNFKDKASLTVDKSSSTAYMELHSLTSEDSAVYYCARELGGYWGQGTTLTVSS
VL: QAVVTQESALTTSPGETVTLTCRSSTGAVTTGNYPNWVQEKPDHLFTGLIAGTNNRAPGVPARFSGSLIGDKAALTITGAQTEDEAIYFCALWFSSHWVFGGGTKLTVL
notes: Murine IgG2b; For flow cytometry it was conjugated to ALEXA FLUOR 647; also called monoclonal antibody 15B6; 15B6 (IgG2b)
In the case of B2, the binding result is “binds” in assay [2] and “no binding” with shed mesothelin.
